Results on 3 variants are retold here after IntAct's records for PubMed 21098279.

Sequences and labels used below:
B1: "Secreted effector protein EspF(U)" (Escherichia coli O157:H7), P0DJ88 (parent)
chain: MINNVSSLFPTVNRNITAVYKKSSFSVSPQKITLNPVKISSPFSPSSSSISATTLFRAPNAHSASFHRQSTAESSLHQQLPNVRQRLIQHLAEHGIKPARSMAEHIPPAPNWPAPPPPVQNEQSRPLPDVAQRLVQHLAEHGIQPARNMAEHIPPAPNWPAPPLPVQNEQSRPLPDVAQRLVQHLAEHGIQPARSMAEHIPPAPNWPAPPPPVQNEQSRPLPDVAQRLMQHLAEHGIQPARNMAEHIPPAPNWPAPTPPVQNEQSRPLPDVAQRLMQHLAEHGIQPARNMAEHIPPAPNWPAPTPPVQNEQSRPLPDVAQRLMQHLAEHGINTSKRS
partner: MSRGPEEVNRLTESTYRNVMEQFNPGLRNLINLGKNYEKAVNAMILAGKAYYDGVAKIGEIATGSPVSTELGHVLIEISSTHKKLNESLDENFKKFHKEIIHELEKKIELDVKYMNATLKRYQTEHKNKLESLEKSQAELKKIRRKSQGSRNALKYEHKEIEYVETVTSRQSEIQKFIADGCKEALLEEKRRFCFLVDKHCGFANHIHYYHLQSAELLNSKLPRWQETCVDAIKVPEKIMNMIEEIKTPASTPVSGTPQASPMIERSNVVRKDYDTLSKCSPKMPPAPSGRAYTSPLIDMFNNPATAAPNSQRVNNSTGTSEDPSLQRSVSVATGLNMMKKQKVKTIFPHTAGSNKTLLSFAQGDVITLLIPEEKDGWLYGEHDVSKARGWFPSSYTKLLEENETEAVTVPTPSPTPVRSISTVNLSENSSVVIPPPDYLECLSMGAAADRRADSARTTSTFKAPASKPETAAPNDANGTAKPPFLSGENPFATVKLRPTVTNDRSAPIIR

In the assay the parent is B1. The settings on record: with bi2l1_human BAIAP2L1, Q9UHR4.
Consider N299P;W300P, for which the “effect of a mutation on the interaction” value is “decreasing interaction”.

With N299A;W300A;P301A, the “effect of a mutation on the interaction” value was “decreasing interaction”.

For the variant N299G;W300G;P301G, the “effect of a mutation on the interaction” value was “decreasing interaction”.
